# In article PMC314469, “Protein Interaction Networks by Proteome Peptide Scanning” (PLoS Biology, 2004):
# Experiments:
# [1] = biological target: T1, amphyphisin SH3 (AMPH_HUMAN), P49418; assay: SPOT array
# T1 chain: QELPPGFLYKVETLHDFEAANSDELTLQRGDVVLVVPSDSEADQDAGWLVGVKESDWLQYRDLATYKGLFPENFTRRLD
# [2] = biological target: endophilin SH3 (SH3G2_HUMAN), Q99962; assay: SPOT array
Binder,"normalised SPOT signal, Boehringer light units (BLU); mean over the file's lines of this peptide [1]","normalised SPOT signal, Boehringer light units (BLU); mean over the file's lines of this peptide [2]"
STSFPRRPLAVEGG [O00124 234-247],53,132
SVSFIGRPWRVVDG [Q12789 1979-1992],112,78.1
SVEPPKRPTSRLIM [Q9UMX9 24-37],36,480
AAVPPPRPPIPEER [Q16099 865-879],419,4290
SVIKPPRPDRGWFV [Q9BY07 808-821],1520,4940
SVIKPTRPDRGWFV [Q9HBU5 808-821],4960,3200
SVIPPDRPPGASAG [O43147 533-547],53.4,72.8
SVNHIKRPHSVPSS [O75179 569-582],16.7,133
SVSGPKRPQDRVAV [P48200 444-457],38.9,67.2
SDTSPRRPLRPTPN [Q16456 13-26],3520,1300
SVSRPERPPESAAL [Q9Y256 12-26],85.5,102
SVTDIRRPRLYLLQ [Q9NYY3 591-604],35.9,96.5
SVVGIRRPFQIPPG [Q9NPJ5 421-434],33.8,127
SWERPRRPNGDIVG [P16144 1660-1673],3700,2770
SWPLLERPWKAFLN [Q9H6E9 501-514],12.2,179
SWQILARPWRAFFK [Q9H6E1 737-750],1030,73.5
SYRRLDRPTRIRFS [Q9H2X0 201-214],780,2240
SYTRIKRPQDQLRF [P55055 405-418],38.5,128
TASPPARPPAQVGL [Q9NT59 32-46],34.4,365
TAGPPKRPGRPPKN [P55201 901-914],5130,93.8
SEEHPRRPDHGRRG [Q9NUN8 9-22],17.2,55.3

Binder,"normalised SPOT signal, Boehringer light units (BLU); mean over the file's lines of this peptide [1]","normalised SPOT signal, Boehringer light units (BLU); mean over the file's lines of this peptide [2]"
TAKKIKRPKFTVPQ [Q9UDN0 30-43],42.6,15.1
TAPLPIRPPSGTKK [Q9UBS0 458-472],468,1100
TAVPPKRPYGTQRT [Q9H6A9 359-372],37.8,398
TDNKFRRPWTRVSA [Q96M73 46-59],40.3,20.5
TEDTPRRPPEPKPI [Q9UKN7 2430-2443],16.8,16.8
TEEELRRPEMKNFF [Q9Y373 238-251],34.2,28.7
TEGIPPKPPPRLVW [Q9UBY0 781-795],2770,1260
TEGRLRRPQQQQER [Q96PE2 193-206],30,0
TELLPKRPQHLPGH [P54098 556-569],34.4,21.9
TELLPRRPPSSSSS [Q9BZL6 226-240],118,339
SEGSLTRPKKAIPA [Q13329 90-103],76.6,128
TENAPSRPLRRRRK [Q9ULR8 121-134],18800,1650
TEVDIKRPSRGQTS [Q96T37 401-414],656,77.7
TFGIPLRPNRGRGG [Q9UFR3 88-101],8170,583
TGGGPGRPPDWTPH [Q9BZS0 2280-2294],43.3,668
THSIIKRPDNQHVI [Q02817 4993-5006],38.6,56.3
THLLIKRPPFFHYR [Q9HAM8 259-272],33.8,2020
TILLPKRPPKTTED [Q9BT43 129-143],282,916
TIPKPPKPPDKPLM [O43539 57-71],59.5,1750
TIPPFERPFKDHQV [O94847 104-117],0,127
TKALLKRPLREIQM [Q9UBI4 175-188],866,170
